# In patent US20170226155A1:
# Columns and labels:
# DP IV [1] = assay: enzyme inhibition (A410); pH 2, 30 minutes
# DP IV [2] = assay: enzyme inhibition (A410); pH 2, 10 minutes
# DP IV [3] = assay: enzyme inhibition (A410); pH 8, 30 minutes
# [4] = target: Dipeptidyl amino peptidase type IV (DPP IV); assay: cell-based or functional assay
# - [5] = assay: enzyme inhibition (fluorescence); pH 2, +DPIV
# - [6] = assay: enzyme inhibition (fluorescence); pH 2, -DPIV
# - [7] = assay: enzyme inhibition (fluorescence); pH 7.6, +DPIV
# - [8] = assay: enzyme inhibition (fluorescence); pH 7.6, -DPIV
# - [9] = assay: enzyme inhibition (A410); pH 2
# - [10] = assay: enzyme inhibition (A410); pH 8
# - [11] = assay: enzyme inhibition (A410); pH 12
# DPP IV [12] = assay: enzyme inhibition (A410); pH 2, 30 minutes
# DPP IV [13] = assay: enzyme inhibition (A410); pH 8, 10 minutes
# DPP IV [14] = assay: enzyme inhibition (A410); pH 2, 10 minutes
# DPP IV [15] = assay: enzyme inhibition (A410); pH 8, 30 minutes
Substance,"IC50 at ten minutes, pH 2 [4]","IC50 at ten minutes, pH 8 [4]",further results
ChgAib-EthylGly-boroPro,,,IC50 (DP IV [1]): 2100 nM; IC50 (DP IV [2]): 13000 nM; IC50 (DP IV [3]): 3200 nM
ChgHypEtgboroPro (peptide),17 nM,25 nM,
Cyclohexylglycine-Proline-Ala-boroProline (peptide),17 nM,17 nM,"IC50, pH 2 (Tetrapeptide Prodrugs) [4]: 19 nM; IC50, pH 8 (Tetrapeptide Prodrugs) [4]: 15 nM"
ChgDhpEtgboroPro (peptide),15 nM,17 nM,
AspProGlyboroLeu,,,IC50 (- [5]): 108 nM; IC50 (- [6]): 232 nM; IC50 (- [7]): 93 nM; IC50 (- [8]): 234 nM
ChgAlaEtgboroAla (peptide),1.3 µM,2.5 µM,
tert-Butyl Gly-boro-Pro,,,IC50 (- [9]): 3.4 nM; IC50 (- [10]): 300 nM; IC50 (- [11]): 19 nM
ChgProChgboroAla (peptide),180 nM,170 nM,"IC50, pH 2 (Tetrapeptide Prodrugs) [4]: 180 nM; IC50, pH 8 (Tetrapeptide Prodrugs) [4]: 170 nM"
Propyl Gly-boro-Pro,,,IC50 (- [9]): 2.5 nM; IC50 (- [10]): 2800 nM; IC50 (- [11]): 200 nM
ChgProEtgboroPro (peptide),12 nM,14 nM,
ChgProChgboroPro (peptide),14 nM,14 nM,
Cyclohexylglycine-Proline-Valine-boroProline (peptide),70 nM,70 nM,"IC50, pH 2 (Tetrapeptide Prodrugs) [4]: 65 nM; IC50, pH 8 (Tetrapeptide Prodrugs) [4]: 72 nM"
ChgThz4EtgboroPro (peptide),13 nM,16 nM,
ChgProtBugboroAla (peptide),6.8 µM,8.4 µM,
ChgAla-tBugboroPro,,,IC50 (DPP IV [12]): > 22000 nM; IC50 (DPP IV [13]): > 22000 nM; IC50 (DPP IV [14]): > 22000 nM; IC50 (DPP IV [15]): > 22000 nM

# Second part, led by results:
"IC50 at ten minutes, pH 2 [4]","IC50 at ten minutes, pH 8 [4]",Substance,further results
19 nM,14 nM,ChgPipEtgboroPro (peptide),
15 nM,16 nM,ChgAzeEtgboroPro (peptide),
39 nM,34 nM,"N-Me-Gly-3,4 dehydroproline-ALA-PRO boronic acid (peptide)",
600 nM,802 nM,ChgAlaEtgboroPro (peptide),
1.5 µM,8 µM,ChgProtBugboroPro (peptide),
2 µM,,AibAlaValboroPro (peptide),
2 µM,30 µM,ChgAlaProboroPro (peptide),"IC50, pH 2 (Tetrapeptide Prodrugs) [4]: 2 mM; IC50, pH 8 (Tetrapeptide Prodrugs) [4]: 30 mM"
190 nM,360 nM,ChgAlaValboroPro (peptide),"IC50, pH 2 (Tetrapeptide Prodrugs) [4]: 190 nM; IC50, pH 8 (Tetrapeptide Prodrugs) [4]: 360 nM"
14 nM,18 nM,tBugProAlaboroPro (peptide),
